Reference: article PMC12246617, “Cryo-EM structures reveal the PP2A–B55α and Eya3 interaction that can be disrupted by a peptide inhibitor” (The Journal of Biological Chemistry, 2025)

Molecular target: His-hB55 (human PP2A regulatory subunit B55α) (human) (UniProt P63151)
Assay: MST; His-B55 labelled with RED-Tris-NTA dye, added to serial dilutions of mEya3 (wild type or mutant) in PBS with 0.05% Tween-20; Monolith NT.115 Pico

His-hB55 (human PP2A regulatory subunit B55α) (human), sequence (P63151 whole entry): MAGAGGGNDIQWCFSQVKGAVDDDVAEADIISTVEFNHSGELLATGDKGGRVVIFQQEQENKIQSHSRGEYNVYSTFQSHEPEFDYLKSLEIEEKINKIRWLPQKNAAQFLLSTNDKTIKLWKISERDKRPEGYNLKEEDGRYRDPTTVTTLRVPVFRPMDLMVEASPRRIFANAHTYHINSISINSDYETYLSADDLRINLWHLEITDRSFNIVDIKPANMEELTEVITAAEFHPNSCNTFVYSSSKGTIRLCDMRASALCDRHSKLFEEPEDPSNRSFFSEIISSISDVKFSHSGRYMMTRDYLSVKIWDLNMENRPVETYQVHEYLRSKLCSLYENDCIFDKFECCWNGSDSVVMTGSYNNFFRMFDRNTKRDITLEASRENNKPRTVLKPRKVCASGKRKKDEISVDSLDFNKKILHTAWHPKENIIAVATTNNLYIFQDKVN

**Q.** “mouse Eya3 (mEya3), wild type (from UniProt P97480 1-510) (natural protein)” was tested. Which Kd did it give?
**A.** 1.04 µM
